Results on four molecules are retold here after PMC7721900, “Assembly properties of bacterial tubulin homolog FtsZ regulated by the positive regulator protein ZipA and ZapA from Pseudomonas aeruginosa” (Scientific Reports, 2020).

Holding throughout (settings): both partners purified
The target of assay [1] is T1, FtsZ from Escherichia coli (E. coli, UniProt P0A9A6 1-383).
T1 construct: FtsZ, Escherichia coli, wild type; in pET11b; also called EcFtsZ; wild type FtsZ; source: bacterially expressed (pET11b), purified (30% ammonium sulfate, source Q 10/10)
T1 sequence (looked up): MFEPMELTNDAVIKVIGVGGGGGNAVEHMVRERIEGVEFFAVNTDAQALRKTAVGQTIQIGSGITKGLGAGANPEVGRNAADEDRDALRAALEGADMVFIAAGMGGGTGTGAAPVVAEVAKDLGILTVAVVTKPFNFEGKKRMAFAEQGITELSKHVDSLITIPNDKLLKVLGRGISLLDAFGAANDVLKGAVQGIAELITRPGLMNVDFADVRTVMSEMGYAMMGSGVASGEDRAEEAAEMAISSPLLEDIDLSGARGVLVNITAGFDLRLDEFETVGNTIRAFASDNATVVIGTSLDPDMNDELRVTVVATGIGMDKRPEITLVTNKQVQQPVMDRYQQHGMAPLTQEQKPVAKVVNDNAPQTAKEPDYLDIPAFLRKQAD
In words: Bodipy fluorescence quenching assay of assembly; HMK buffer, room temperature; 7 µM EcFtsZ (less than 10% Bodipy labeled T151C/Y222W with wild type), alone or with 10 µM ZapA or ZipA.

In assay [2] the target is T1, FtsZ from Escherichia coli. Briefly: light scattering; HMK buffer, room temperature, 340 nm; 7 µM EcFtsZ plus 10 µM EcZapA.
Assay [3] has as its target T2, EcFtsZ-F268C labeled with fluorescein (donor) or tetramethylrhodamine (acceptor) (E. coli, UniProt P0A9A6 1-383, F268C, single cysteine labeled separately with Fluorescein 5-maleimide (donor) or Tetramethylrhodamine 5-maleimide (acceptor)).
T2 construct: FtsZ, Escherichia coli, single cysteine mutant F268C (printed as L268C in the results); in pET11b; also called EcFtsZ-L268C; source: bacterially expressed (pET11b), purified (30% ammonium sulfate, source Q 10/10)
T2 sequence (looked up): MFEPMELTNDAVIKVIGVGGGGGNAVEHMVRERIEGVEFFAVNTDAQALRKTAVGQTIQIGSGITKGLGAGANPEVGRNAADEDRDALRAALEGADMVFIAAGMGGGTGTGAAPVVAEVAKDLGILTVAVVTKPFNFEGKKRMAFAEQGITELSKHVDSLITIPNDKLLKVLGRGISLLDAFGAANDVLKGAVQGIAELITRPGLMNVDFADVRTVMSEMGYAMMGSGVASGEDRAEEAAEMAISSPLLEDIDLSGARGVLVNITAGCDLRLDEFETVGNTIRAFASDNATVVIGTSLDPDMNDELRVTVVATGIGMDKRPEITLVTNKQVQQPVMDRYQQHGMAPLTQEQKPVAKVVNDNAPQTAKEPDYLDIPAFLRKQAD
Briefly: FRET or BRET; HMK buffer; donor- and acceptor-labeled EcFtsZ-F268C polymerized separately for 5 min, alone or with 10 µM ZipA or ZapA, then mixed; decrease of donor fluorescence, single exponential fit; 7 µM EcFtsZ; subunit exchange at steady state. Background: BRET reads energy transfer from a luciferase to a nearby fluorophore.

Assay [4] concerns the target T3, FtsZ from Pseudomonas aeruginosa (P. aeruginosa, UniProt P47204 1-394).
T3 construct: FtsZ, Pseudomonas aeruginosa; cloned in pET15b at NdeI/BamHI; Forms protofilaments and bundles with GTP; also called PaFtsZ; source: E. coli BL21 (pET15b), purified (Talon column, thrombin, source Q 10/10)
T3 sequence (looked up): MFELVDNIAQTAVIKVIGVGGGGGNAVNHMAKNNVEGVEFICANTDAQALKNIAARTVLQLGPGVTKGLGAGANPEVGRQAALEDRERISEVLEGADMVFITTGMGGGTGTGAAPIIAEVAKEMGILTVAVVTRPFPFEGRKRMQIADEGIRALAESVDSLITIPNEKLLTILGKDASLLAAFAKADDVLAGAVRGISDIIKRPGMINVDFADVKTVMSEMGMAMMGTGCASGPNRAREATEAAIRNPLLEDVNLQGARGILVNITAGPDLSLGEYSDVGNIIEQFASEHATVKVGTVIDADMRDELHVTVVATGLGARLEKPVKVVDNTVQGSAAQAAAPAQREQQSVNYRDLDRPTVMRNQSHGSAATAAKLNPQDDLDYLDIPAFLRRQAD
In words: negative stain electron microscopy; HMK buffer (50 mM HEPES, 100 mM KAc, 5 mM MgAc, pH 7.5), GTP, 1-5 min at room temperature; 3 or 5 µM PaFtsZ alone, or 5 µM PaFtsZ with 10 µM ZipA or ZapA.

The target of assay [5] is T3, FtsZ from Pseudomonas aeruginosa. Briefly: negative stain electron microscopy; MMK buffer (50 mM MES, 100 mM KAc, 5 mM MgAc, pH 6.5), GTP, 1-5 min at room temperature; 5 µM PaFtsZ alone, or with 10 µM ZipA or ZapA.

B1: EcFtsZ-T151C/Y222W labeled with Bodipy at Cys151 (natural protein, E. coli, UniProt P0A9A6 1-383, looked up)
chain: MFEPMELTNDAVIKVIGVGGGGGNAVEHMVRERIEGVEFFAVNTDAQALRKTAVGQTIQIGSGITKGLGAGANPEVGRNAADEDRDALRAALEGADMVFIAAGMGGGTGTGAAPVVAEVAKDLGILTVAVVTKPFNFEGKKRMAFAEQGICELSKHVDSLITIPNDKLLKVLGRGISLLDAFGAANDVLKGAVQGIAELITRPGLMNVDFADVRTVMSEMGWAMMGSGVASGEDRAEEAAEMAISSPLLEDIDLSGARGVLVNITAGFDLRLDEFETVGNTIRAFASDNATVVIGTSLDPDMNDELRVTVVATGIGMDKRPEITLVTNKQVQQPVMDRYQQHGMAPLTQEQKPVAKVVNDNAPQTAKEPDYLDIPAFLRKQAD
modifications: Bodipy-FL N-(2-aminoethyl)maleimide on Cys 151
notes: FtsZ, Escherichia coli, double mutant T151C/Y222W; in pET11b; Used mixed with a ninefold excess of unlabeled wild-type EcFtsZ; also called Bodipy labeled FtsZ; labeled EcFtsZ; source: bacterially expressed (pET11b), purified (30% ammonium sulfate, source Q 10/10)
With B1, the binding result in assay [1] was “binds”.

B2: ZapA from Escherichia coli (natural protein, E. coli, UniProt P0ADS2 1-109, looked up)
chain: MSAQPVDIQIFGRSLRVNCPPDQRDALNQAADDLNQRLQDLKERTRVTNTEQLVFIAALNISYELAQEKAKTRDYAASMEQRIRMLQQTIEQALLEQGRITEKTNQNFE
notes: ZapA, Escherichia coli; cloned in pET15b at NdeI/BamHI; Removal of the His tag is told only for PaFtsZ; also called EcZapA; source: E. coli BL21 (pET15b), purified (Talon column)
As for B2, the binding result in assay [2] and in assay [3] was “binds” throughout.

B3: ZapA from Pseudomonas aeruginosa (natural protein, P. aeruginosa, UniProt Q9HTW3 1-104, looked up)
chain: MSQSNTLTVQILDKEYCINCPDDERANLESAARYLDGKMREIRSSGKVIGADRVAVMAALNITHDLLHRKERLDQESSSTRERVRELLDRVDRALANPADAGEA
notes: ZapA, Pseudomonas aeruginosa; cloned in pET15b at NdeI/BamHI; Removal of the His tag is told only for PaFtsZ; also called PaZapA; source: E. coli BL21 (pET15b), purified (Talon column)
Regarding B3, in assay [4], the binding result is “binds”.

B4: N-terminal truncated PaZipA (26-289) (domain or fragment, P. aeruginosa, UniProt Q9I3I5 26-289, looked up)
chain: RRMRGGKGKLKFKLDRSFANLPDDDGDSAELLGPARVVEHREPSFDEQDLPSVSAREAKERKGGKRQEEPRQGDLDLDEGLALEADPSDAAETVEPRKGKSKGRKEKEREKAPAVAAEPAPVDEVLIINVIARDESGFKGPALLQNILESGLRFGDMDIFHRHESMAGNGEILFSMANAVKPGTFDLDDIDNFSTRAVSFFLGLPGPRHPKQAFDVMVAAARKLAHELNGELKDEQRSVLTAQTIEHYRQRIIDHERRSLMQKR
notes: ZipA, Pseudomonas aeruginosa, residues 26-289; N-terminally truncated to remove the transmembrane domain; Removal of the His tag is told only for PaFtsZ; also called ZipA from Pseudomonas aeruginosa; source: E. coli BL21 (pET15b), purified (Talon column)
For the molecule B4, in assay [5], the binding result was “binds”.
